Results reported in patent publication US20050100554A1 (published 2005).

How the values were obtained:
GPRK5 = molecular target: T1, GPRK5 (human, UniProt P34947 1-590); experiment: Y2H; INT ID 27
T1 construct: also called cbe_2541164

nucleoporin 214 kDa = molecular target: T2, nucleoporin 214 kDa (human, UniProt P35658 2-2090); experiment: Y2H; INT ID 29
T2 construct: also called NUP214; cbe_3590661

[1] = molecular target: T3, rho/rac guanine nucleotide exchange factor (GEF) 2 (human, UniProt Q92974 28-986); experiment: Y2H; INT ID 30
T3 construct: also called ARHGEF2; cbe_3694420
T3 sequence: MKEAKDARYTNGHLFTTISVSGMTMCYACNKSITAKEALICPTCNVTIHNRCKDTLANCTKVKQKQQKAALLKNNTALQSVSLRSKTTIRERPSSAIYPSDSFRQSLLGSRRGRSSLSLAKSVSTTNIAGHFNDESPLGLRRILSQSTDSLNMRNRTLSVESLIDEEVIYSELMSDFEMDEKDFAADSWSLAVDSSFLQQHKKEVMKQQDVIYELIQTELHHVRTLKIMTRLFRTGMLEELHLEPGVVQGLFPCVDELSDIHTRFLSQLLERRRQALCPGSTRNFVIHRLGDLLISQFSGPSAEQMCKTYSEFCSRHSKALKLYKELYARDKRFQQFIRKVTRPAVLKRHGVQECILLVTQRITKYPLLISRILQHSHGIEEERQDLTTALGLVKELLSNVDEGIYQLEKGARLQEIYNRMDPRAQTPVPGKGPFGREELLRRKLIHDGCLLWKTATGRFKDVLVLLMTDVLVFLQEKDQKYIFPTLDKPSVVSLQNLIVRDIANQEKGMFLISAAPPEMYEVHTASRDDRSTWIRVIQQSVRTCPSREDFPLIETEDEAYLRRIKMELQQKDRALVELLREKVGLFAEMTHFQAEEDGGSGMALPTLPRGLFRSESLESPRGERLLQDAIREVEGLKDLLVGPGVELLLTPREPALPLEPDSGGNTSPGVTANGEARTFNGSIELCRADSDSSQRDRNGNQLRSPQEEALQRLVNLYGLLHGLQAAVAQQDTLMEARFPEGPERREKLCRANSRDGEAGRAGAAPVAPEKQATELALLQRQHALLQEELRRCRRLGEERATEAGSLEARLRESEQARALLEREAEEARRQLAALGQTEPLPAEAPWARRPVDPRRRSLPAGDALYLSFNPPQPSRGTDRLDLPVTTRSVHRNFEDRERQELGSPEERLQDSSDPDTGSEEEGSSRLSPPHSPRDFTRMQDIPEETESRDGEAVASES

CD164 = molecular target: T4, CD164 (human, UniProt Q04900 24-197); experiment: Y2H; INT ID 31
T4 construct: also called cbe_3929669

MAPK9 = molecular target: T5, MAPK9 (human, UniProt P45984 1-424); experiment: Y2H; INT ID 32
T5 construct: also called cbe_4175362

Measured: binding result

T1 sequence (P34947 whole entry): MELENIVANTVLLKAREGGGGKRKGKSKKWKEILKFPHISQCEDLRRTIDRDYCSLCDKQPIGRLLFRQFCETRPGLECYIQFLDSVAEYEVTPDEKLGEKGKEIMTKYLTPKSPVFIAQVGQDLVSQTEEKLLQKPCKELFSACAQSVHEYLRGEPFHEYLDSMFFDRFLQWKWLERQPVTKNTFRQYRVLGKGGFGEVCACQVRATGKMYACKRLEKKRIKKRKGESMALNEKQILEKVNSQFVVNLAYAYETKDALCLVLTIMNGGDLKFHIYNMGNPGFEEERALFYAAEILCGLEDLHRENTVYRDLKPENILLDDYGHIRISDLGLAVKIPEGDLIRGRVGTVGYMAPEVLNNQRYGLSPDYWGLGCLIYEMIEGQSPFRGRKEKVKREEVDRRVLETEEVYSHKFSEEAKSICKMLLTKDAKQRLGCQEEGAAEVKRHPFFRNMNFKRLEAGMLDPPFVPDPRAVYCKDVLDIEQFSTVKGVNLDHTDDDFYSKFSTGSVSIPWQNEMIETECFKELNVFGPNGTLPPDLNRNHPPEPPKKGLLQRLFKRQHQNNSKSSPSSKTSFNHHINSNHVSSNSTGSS
T2 sequence (P35658 2-2090 limits assumed): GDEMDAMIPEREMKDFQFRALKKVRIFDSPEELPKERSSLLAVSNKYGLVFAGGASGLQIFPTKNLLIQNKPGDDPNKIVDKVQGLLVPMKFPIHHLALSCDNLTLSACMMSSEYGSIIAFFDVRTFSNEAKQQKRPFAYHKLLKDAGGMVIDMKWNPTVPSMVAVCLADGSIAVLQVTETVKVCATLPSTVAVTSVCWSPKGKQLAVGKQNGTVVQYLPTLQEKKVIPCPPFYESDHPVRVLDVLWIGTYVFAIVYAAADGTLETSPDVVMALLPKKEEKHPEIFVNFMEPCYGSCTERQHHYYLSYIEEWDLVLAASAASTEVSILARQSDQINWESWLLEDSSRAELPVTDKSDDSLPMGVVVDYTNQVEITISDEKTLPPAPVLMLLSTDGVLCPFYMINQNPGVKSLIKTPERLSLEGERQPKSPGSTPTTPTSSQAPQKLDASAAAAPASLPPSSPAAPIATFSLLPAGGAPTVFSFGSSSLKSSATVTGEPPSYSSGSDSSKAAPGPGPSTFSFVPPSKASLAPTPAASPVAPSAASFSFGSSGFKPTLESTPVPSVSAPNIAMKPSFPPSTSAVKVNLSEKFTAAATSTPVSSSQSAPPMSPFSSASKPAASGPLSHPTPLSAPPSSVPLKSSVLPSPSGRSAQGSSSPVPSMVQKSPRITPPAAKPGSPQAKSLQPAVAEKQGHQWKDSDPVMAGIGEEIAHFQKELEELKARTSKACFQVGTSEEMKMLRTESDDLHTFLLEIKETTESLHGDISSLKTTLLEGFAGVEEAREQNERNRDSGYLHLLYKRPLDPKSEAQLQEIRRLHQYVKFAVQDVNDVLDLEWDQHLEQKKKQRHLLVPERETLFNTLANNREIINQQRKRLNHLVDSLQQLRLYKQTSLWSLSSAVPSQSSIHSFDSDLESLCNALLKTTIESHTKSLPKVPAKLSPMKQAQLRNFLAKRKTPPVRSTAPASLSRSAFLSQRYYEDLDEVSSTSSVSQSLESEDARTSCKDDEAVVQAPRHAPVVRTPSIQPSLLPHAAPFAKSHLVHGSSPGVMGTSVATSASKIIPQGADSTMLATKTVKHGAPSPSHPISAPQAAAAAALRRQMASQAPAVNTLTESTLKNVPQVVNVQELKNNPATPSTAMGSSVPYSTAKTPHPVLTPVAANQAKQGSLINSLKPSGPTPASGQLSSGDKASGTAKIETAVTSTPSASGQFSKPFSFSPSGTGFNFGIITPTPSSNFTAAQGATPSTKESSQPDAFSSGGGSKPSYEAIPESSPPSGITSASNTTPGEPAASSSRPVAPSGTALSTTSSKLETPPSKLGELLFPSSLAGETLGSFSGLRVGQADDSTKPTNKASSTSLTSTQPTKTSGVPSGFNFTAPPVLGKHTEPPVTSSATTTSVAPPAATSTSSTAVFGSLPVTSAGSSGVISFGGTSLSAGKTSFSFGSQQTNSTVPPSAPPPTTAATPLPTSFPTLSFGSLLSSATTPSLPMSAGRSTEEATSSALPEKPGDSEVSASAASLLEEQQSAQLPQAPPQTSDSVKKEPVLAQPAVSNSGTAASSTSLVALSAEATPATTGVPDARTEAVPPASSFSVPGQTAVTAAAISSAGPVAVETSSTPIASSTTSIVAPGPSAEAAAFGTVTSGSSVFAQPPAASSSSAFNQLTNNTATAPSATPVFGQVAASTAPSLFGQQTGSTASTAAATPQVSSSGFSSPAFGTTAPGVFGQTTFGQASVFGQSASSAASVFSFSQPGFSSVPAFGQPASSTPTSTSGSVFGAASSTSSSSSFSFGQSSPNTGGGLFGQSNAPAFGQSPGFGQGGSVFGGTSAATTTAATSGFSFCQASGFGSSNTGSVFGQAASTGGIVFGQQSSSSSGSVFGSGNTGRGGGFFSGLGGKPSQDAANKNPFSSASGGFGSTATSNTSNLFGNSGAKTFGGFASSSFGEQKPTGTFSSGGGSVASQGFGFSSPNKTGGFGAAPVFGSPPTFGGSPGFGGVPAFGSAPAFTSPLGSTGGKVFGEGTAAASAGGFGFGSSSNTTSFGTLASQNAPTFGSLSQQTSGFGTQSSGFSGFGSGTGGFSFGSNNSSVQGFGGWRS
T4 sequence (Q04900 24-197 limits assumed): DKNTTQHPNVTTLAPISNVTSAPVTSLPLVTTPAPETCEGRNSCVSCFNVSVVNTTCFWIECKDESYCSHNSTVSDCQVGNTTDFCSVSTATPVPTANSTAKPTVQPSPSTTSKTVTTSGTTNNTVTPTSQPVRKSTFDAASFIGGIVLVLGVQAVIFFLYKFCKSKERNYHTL

B1: Human papillomavirus 11 E6 (other)
chain: MESKDASTSATSIDQLCKTFNLSLHTLQIQCVFCRNALTTAEIYAYAYKNLKVVWRDNFPFAACACCLELQGKINQYRHFNYAAYAPTVEEETNEDILKVLIRCYLCHKPLCEIEKLKHILGKARFIKLNNQWKGRCLHCWTTCMEDLLP
notes: also called HPV 11 E6; cbe_250808
binds: all assays above
